Target: HER2 on immobilised SKBR3 EVs (UniProt P04626 23-1255)
Assay: fluorescence polarisation; SKBR3 EVs captured by anti-CD9/CD81; delta FP below LOD; FITC aptamer 5 nM, 1 h, room temperature, in antibody-captured EV wells; aptamers folded in PBS + 1.0 mM MgCl2 (CD63-BP, control) or PBS + 5.0 mM MgCl2 (HER2-HApt); pH not stated
Conditions: protein: native; tags: none; label: 5'-FITC; folded single strand

Binder: GCGCGAATGGGCGCGC (structured_DNA, 3' inverted dT) [FITC-negative control aptamer]
- binding result: no binding
